Experimental data from the nanobody polyreactivity screen of Harvey et al. (2022).

Experiment: yeast display, Sf9 membrane polyspecificity reagent, FACS + sequencing; frameworks hold sequencing errors
Outline: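 Using colony PCR, genes from sorted yeast display clones were amplified, then sequenced on MiSeq at 2 × 250 and filtered by CDR length. The clones had been stained with 10% biotinylated, detergent-solubilized Sf9 membrane reagent for 1 hour at 4 °C and sorted by FACS into low and high (top ~1%) gates on anti-HA and streptavidin fluorescence. Polyreactivity labels come from the gate of origin.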

Sequence | polyreactivity (PSR sort gate)
QVQLQESGGGLVLAGGSLRLSCADSGYISWSFTMVWYRKAPGKEREFVAGITYGGITYYADSVKGRFTISRDNAKNTVYLQMNSLKPEDTAVYYCAAPQTYPYVYVYWGQGTQLTVSS | high polyreactivity
QVQLVESGGGLVQAGGSLRLSCADSGRTFRGNAMGWYRQAPGKERELVAAISWSGDSTYYADSVKGRFTISRDNAKNSVYLQMNSLKPEDTAVYYCNRDYGLQRYRGWYQYNYWGQGTQVTVSS | low polyreactivity
QVQLVESGGGIVQAGGSLRLSCAASGSTFYSYAMGFYRQAPGKERELVAAISWDGGRTYYADSVKGRFTISRDNAKNTVYLQMNSLKPEDTAVYYCAAAYPTYRHYYWGQGTQVTVSS | low polyreactivity
QVQLVESGGGLVQAGGSLRLSCAASGFIFSVYAMGWYRQAPGKERELVAAITGNGVSTYYADSVKGRFTISRDNAKNTVYLQMISLKPEDTAVYSCATYGRRWYSSRRLDYWGQGTQVTVSS | low polyreactivity
QVQLVESGGGLVQAGGSLRLSCAASGNTFYINAMGWYRQAPGKERELVAAINYSGESTYADSVKGRFTISRDNAKNTVYFQMNSLKPEDTAVYYCAADWYFSVYIDYDTEYDYWGQGTQVTVSS | low polyreactivity
QVQLVESGGGLVQAGGSLRLSCAASGSIFSTNAMGWYRQAPWKERELVAGISSDDSTYADSVKGRFTISRDNAKNTVNLQMNSLKPEDTAVYNCAAEDNWYNVGYYYRGQGTQVTVSS | low polyreactivity
QVQLVESGGGLVQAGGSLRLSCAASGRTFVRYAMGWYRQAPGKEREFVAAISWSTGSTYFADSVKGRFTISRDNAKNTVYLQMNSLKPEDTAVYYCAADGYTTYWLLYEYDYWGQGTQVTVSS | low polyreactivity
QVQLVESFGGLVQAGGSLRLICAGSGLTCYVYAMGWSRPAPGKERELVAAISQRGGSTYYADSVKGRFTISRDKAKNTVYLQMNSLKPEDTAVYYCAKYTVQYAFSHYDYWGQGTQVTVSS | high polyreactivity
QVQLVESGGGLVQAGGSLRLSCAASGSTFERYVMGWYRQRLGKKGSWLPVLNHNGGSTYYADSVKGRFTISRDNAKNTVYLQMNSLKPEDTAVYYCAASFRTVLDFGYWGQGTQVTVSS | low polyreactivity
QVQLVESGGGLFQAGGSLRLSCAASGSIFRYYAMGWYRQAPGKERELVARISWRGGSTYADSVKGRFTISRDNAKNTVYLQMNSLKPEDTAVYYCAGVLAVGSYDYWGQGTQVTVSS | low polyreactivity
QVQLVESGGGLVQAGGSLRLSCAASGFIFPTYAMGWYRQAPGKERELVAAISYRGGITSYADSVKGRFTISRDNAKNTVYLQMNSLKPEDTAVYYCAARGAWGYEYWGQGTQVTVSS | low polyreactivity
QVQLVESGGGLVQAGGSLRLSCAASGSTLIRNVMGWYRQAPGKESELDAAITWSGASTYYADSVKGRFTISRDNAKNTVYLQMNSLKPEDTAVYYCAARALNWSRVARYNYWGQGTQVTVSS | high polyreactivity
QLQLVESGGGLVQAGGSLRLSCAASGIIFDGYSRGWYRQAPGKEREFVAAITSGGGSTSYADSVKGRFTISRDYAKNTVYLQMNSLKPEDTAVYYCAARSNRFYVRQRYGYWGQGTQVTVSS | high polyreactivity
QVQLVESGGGLVQAGGSLRLSCAASGYIFYAYAMGWYRQAPGKERELVAAISSGGGRTYYADSVKGRFTISRDNAKNTVDLQRNSLKPEDTAVYYCAARRRDRGEYYYWGQGTQVTVSS | high polyreactivity
QVQLVESGGGLVQAGGSLRLSCAASGITFYYYTMGGYRQAPGKERELVAGITRGGRTYYADSVKGRFTISRDNAKNTVYLQMNSLKPEDTAVYYCNADPWWRFDYWGQGTQVTVSS | low polyreactivity
QVQLVESGGGLVQAGGSLRLSCAASGFTFDYYNMGWYRQAPGKERELVAAITSGASTNYADSVKGRFTISRDNAKNTVYLQMNSLKPEDTAVYYCAAVLAGGVYWVVHYDYWGQGTQVTVSS | low polyreactivity
QVQLVESGGGLVQAGGSLRLSCAASGNIFRYYAMGWYRPAPGKERELVAAISSRGGSTYYADSVKGRFTISRDNAKNTVYLQMTSLKPADTAVYYCAAGGYDVYHDPYYYWGQGTQVTVSS | low polyreactivity
QDQLVDSGVCLVQARGSLRLSCAASGRIFDAYTMGWYRQAPGKESELVASITGRDGSTYYADSVKGRFTISRDNAKNTVYLQMNSLKPEDTAVDYCNAKYSSFGIRYNYWGQGTQVTVSS | high polyreactivity
QVQLVESGGGLVQAGGSLRLSCAASGRTFKYYAMGWYRQAPGKERELVAAISSGSSTYYADSVKGRFTISRDNAKNTVYLQMNSLKPEDTAVYYCNAVYKLSYLLSGTSEYYTYDYWGQGTQVTVSS | high polyreactivity
QVQLVESGGGLVQAGGSLRLSCAASGSLFRSYAMGWYRQAPGKERELVAAISTRVVNTYYADSVKGRFTISRDNAKNTVYLQMNSLKPEDTAVYYCAALRYRITNVYYWGQGTQVTVSS | high polyreactivity
QVQLVESGGGLVQAGGSLRLSCAASGLILGPYAMGWYRKAPGKERELVAAITRGGGTYYADSVKGRFTISRDNAKNTVYLQMNSLKPEDTAVYDCARIYYVSIYRYDYWGQGTQVTVSS | high polyreactivity
QVQLVESGGGLVQAGGSLRLSCAASGSTFYYNAMGWYRQAPGKERELDARISRSGGSTYADSVKGRFTISRDNAKNTVYLQMNSLKPEDTAVYYCNADAYGTPEFTSYAVRYDYWGQGTQVTVSS | low polyreactivity

Sequence | polyreactivity (PSR sort gate)
QVQLVESGGGLVQAGGSLRLSCAASGSTFRWNAMGWYRQAPGKERELVAAITWSGGSTYYADSVKGRFTISRDNAKNTVYLQMNSLKPEDTAVYYCNAGGLFQYDSWGQGTQVTVSS | low polyreactivity
QVQLVESGGGLVQAGGSLRLSCAASGSIFGYNAMGWYRQAPGKERELVAAITSSGGSTYNADSVKGRFTISRDNAKNTVYLQMNSLKPEDTAFYYCNSRDWYIVWYDYWGQGTQVTVSS | low polyreactivity
QDQLVESGGGLVQAGGRLRLSCAASVRIFWVNAMGWYRQAPGKERELVAAISWTSGSTYYADSVKGRFTISRDHANNTVYLMMNSLKPEDTAVYYCNKVQSGEYDYWGQGTQVTVSS | high polyreactivity
QVQLVESGGGLVQAGGSLRLSCAASGSIFYTNAMGWYRQAPGKERELVAAITRTGSTNYADSVKGRFTISRDNAKNTVYLQMNSLKPEDTAVYYCNARRYYRYGYWGQGTQVTVSS | high polyreactivity
QVQLVESGGGLVQAGGSLRLSCAASGSIFYDYAMGCYRQAPGKERELVDRISSGGSTYYADSVKGRFTISRDNAKNTVYLQMNSLKPEDSAVYYCNAGVEFAASLYYSDNYDYWGQGTQVTVSS | low polyreactivity
QVQLVESGGGLVQAGGSLRLSCAASGRIFWTYAMGWYRPAPGKERELVAAITWRGGSTSYADSVKGRFTISRDNAKNTVYLQMNSLKPEDTAVYYCNARYSGYSPWGNDYWGQGTQVTVSS | high polyreactivity
QVQLVESGGGLVQAGGSLRLSCAASGRIFIRYAMGWYRQAPGKERELVAGITSGGDTYYADSVKGRFTISRDNAKNTVYLQMNSLKPEDTAVYYCARVRYGRMDYWGQGTQVTVSS | high polyreactivity
QFQLEESGGGLVQAGGSLRLSCAASGSTFSSYVMGWYRQAPGKERELVAAISSIGGSTYYADSVKGRFTISRDNAKNTVYLQMNSLKPEDTAVYYCAAEPPGSTYEGGYLGQGTQVTVSS | low polyreactivity
QVQLVESGGGIVQAGGSLRLSCAASGRTFAGNAMGWYRQAPGKERELVAAISQGGGSTYYADSVKGRFTISRDNAKNTVYLQMNSLKPEDTAVYYCAAEIPRRWASFATLWYDYWGQGTQVTVSS | low polyreactivity
QVQLVESGGGLVQAGGSLRLSCAPSGIILYRYAMGWYRQAPGKERELVAAITYSGGSTYYADSVKGRFTISRDNAKNSVYLQMNSLNPEDTAVYYCAAESRAGRYYVSKPSNYWGQGTQVTVSS | high polyreactivity
QVQLVESGGGLVQAGGSLRLSCAASGSIFGPYAMGWYRQAPGKERELVAVISKRGGSTYYADSVKGRFTISRDNAKNTVYLQMNSLKPEDTAVYYCAADYDWDPYRIYYLASYDYWGQGTQVTVSS | high polyreactivity
QVQLVESGGGLVQAGGSLRLSCAASGSIFYRYAMGWYRQAPGKERELVASISKSGGSTYYADSVKGRFTISRDNAKNTVYLQMNSLKPEDTAVYYCAKKPRGTVYRFDYWGQGTQVTVSS | high polyreactivity
QVQLVESGGGLVQAGASLRLSCAASGRTFGGYAMGWYRQAAGKERELVAAISYSGGSTYYADSVKGRFTISRDYAKNTVYLQMNSLKPEDTAVYYCAADGFDAYYWGQGTQVTVSS | low polyreactivity
QVQLVESGGGLVQAGGSLRISCAASGSIFQGYAMGWYRQAPGKERELVATITWSGGSTYYADSVTGRFTISRDNAKNTVYLQMNSLKPEETAVYYCNADSNGYYLWNYYGMYDYWGQGTEVTVSS | low polyreactivity
QVHLVESGGGLVQAGGSLRLSSAASGSTFYKNAMGWYRQAPGKERELVAGISRRGGRTYYADSVKGRFTISRDNANNTVYLQMNSLKPEDTAVYYCNTGHEEDEYDYWGQGTQVTVSS | low polyreactivity
QVQLVESGGGLVQAGGSLRLSCAASGSIFPKYAMGWYRQAPGKEREFVAAISRRGGSTYYAYSVKGRFTISRDNAKNTVYLQMNSLKPEDTAVYYCSVKIPTYPIFGRYGYWGQGTQVTVSS | high polyreactivity
QVQLVESGAGLVQAGGSLRLSCAASGSTFHYYAMGLYRQAPGKERELVATITWRGGFTYYADSVKGRFTISRDNAKNTVYLQMNSLKPEDTAGYYCTDYYVRRYRDPRLYYWGQGTQVTVSS | high polyreactivity
QVQLVESGGGLVQAGGSLRLSCAASGSIFGAYAMGWYRQAPGKERELVAAISSGGSTYADSVKGRFTISRDNAKNTVYLQMNSMKPEDTAVYYCNAVFRARNYHYNPRRFKYYYWGQGTQVSVSS | high polyreactivity
QVQLVESGGGLVQAGGSLRLSCAASVRIFPTNAMGWYRQAPGKEREFVAAITWLGGSTYYADSVKGRFTISRDNAKNTVYLQMNRLKPEDTAVYYCAATGHIVFFRAYDYGYWGQGTQVTVSS | low polyreactivity
QVQLVESGGGLVQAGGSLRLSCAASGSIFRSYAMGWYRQAPGKERELVASISRRGGSTYYADSVKGRFTISRDNAKNSVYLQMNSLKPEDTAVYYCAAVRYNSRVSTTPSEMYYWGQGTQVTVSS | low polyreactivity
QGQRVESGGGLVQAGGSLRLTCAPSGRTFTGYAMGWYRQATGKARELVAGINWSTGSTYYADSVKGRFTISRDNAKNTVYLQMNSLKPEDTAVYYCAAGYYYYGNGRIVQYEYWGQGTQVTVSS | high polyreactivity
